Source: publication PMC6365974, “Characterization of an Aldehyde Oxidoreductase From the Mesophilic Bacterium Aromatoleum aromaticum EbN1, a Member of a New Subfamily of Tungsten-Containing Enzymes” (Frontiers in Microbiology, 2019)

Legend:
AORAa = target: T1, AORAa (Aromatoleum aromaticum, UniProt Q5P143); test: flavin fluorescence of supernatant of heat-denatured enzyme, phosphodiesterase treatment; format: binding; conditions: co-purified cofactor; site AorC (predicted)
T1 construct: gene aorB; native heterohexamer α2β2γ2, ca. 280 kDa (subunits 66, 46, 17 kDa), purified from phenylalanine-grown Δpdh cells, no tag; with Iron-sulfur protein, aldehyde oxidoreductase small subunit AorA

[1] = test system: c1ccc(C[n+]2ccc(-c3cc[n+](Cc4ccccc4)cc3)cc2)cc1; test: purified protein; conditions: artificial electron acceptor, phenylacetaldehyde as co-substrate, 100 mM Tris-HCl pH 8.0, 28°C, probably reacts at an Fe-S cluster
[2] = target: T2, AorB, large W-cofactor binding subunit of aldehyde oxidoreductase AORAa from Aromatoleum aromaticum EbN1 (Aromatoleum aromaticum EbN1, UniProt Q5P143 1-616); test: co-purification by enzyme activity (DEAE-sepharose, hydroxyapatite, Superdex 200 gel filtration); endogenous enzyme purified from cell extract under anoxic conditions, followed by AOR activity; subunits separated by SDS-PAGE and identified by MALDI-TOF of tryptic fragments; conditions: partners not purified
T2 construct: AorB, large subunit (66 kDa on SDS-PAGE) of the tungsten-containing aldehyde oxidoreductase of Aromatoleum aromaticum EbN1; also called large subunit; aorB gene product; source: purified from A. aromaticum EbN1 strain SR7Δpdh as part of AORAa (DEAE-sepharose, hydroxyapatite, Superdex 200)
T2 sequence (looked up): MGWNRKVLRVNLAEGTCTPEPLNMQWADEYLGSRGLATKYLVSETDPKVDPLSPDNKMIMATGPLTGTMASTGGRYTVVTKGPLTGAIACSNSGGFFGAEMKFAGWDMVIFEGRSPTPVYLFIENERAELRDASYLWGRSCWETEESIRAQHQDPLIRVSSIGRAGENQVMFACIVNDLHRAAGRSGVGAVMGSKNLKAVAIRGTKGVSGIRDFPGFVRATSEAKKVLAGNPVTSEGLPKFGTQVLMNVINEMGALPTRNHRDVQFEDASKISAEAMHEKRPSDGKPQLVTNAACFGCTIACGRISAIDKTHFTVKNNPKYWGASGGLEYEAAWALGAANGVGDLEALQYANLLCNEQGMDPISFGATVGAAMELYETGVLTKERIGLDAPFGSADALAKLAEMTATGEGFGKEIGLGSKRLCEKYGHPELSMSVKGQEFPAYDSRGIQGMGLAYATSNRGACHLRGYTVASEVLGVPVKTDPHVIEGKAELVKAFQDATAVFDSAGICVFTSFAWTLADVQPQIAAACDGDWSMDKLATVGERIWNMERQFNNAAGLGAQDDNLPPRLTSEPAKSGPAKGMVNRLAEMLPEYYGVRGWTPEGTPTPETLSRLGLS

purified protein [3] = substrate: CC=O; test: purified protein; conditions: electron acceptor benzyl viologen, 100 mM Tris-HCl pH 8.0, 28°C, site AorB (W-cofactor, predicted)
purified protein [4] = substrate: O=Cc1ccccc1; test: purified protein; conditions: electron acceptor benzyl viologen, 100 mM Tris-HCl pH 8.0, 28°C, site AorB (W-cofactor, predicted)
purified protein [5] = substrate: O=CCc1ccccc1; test: purified protein; conditions: electron acceptor benzyl viologen, 100 mM Tris-HCl pH 8.0, 28°C, site AorB (W-cofactor, predicted)
purified protein [6] = substrate: NC(=O)c1ccc[n+]([C@@H]2O[C@H](COP(=O)(O)OP(=O)(O)OC[C@H]3O[C@@H](n4cnc5c(N)ncnc54)[C@H](O)[C@@H]3O)[C@@H](O)[C@H]2O)c1; test: purified protein; format: biochemical, Aromatoleum aromaticum; conditions: electron acceptor, phenylacetaldehyde as co-substrate, 100 mM Tris-HCl pH 8.0, 28°C, site AorC (FAD, predicted)

Molecule: Cc1cc2nc3c(=O)[nH]c(=O)nc-3n(C[C@H](O)[C@H](O)[C@H](O)COP(=O)(O)OP(=O)(O)OC[C@H]3O[C@@H](n4cnc5c(N)ncnc54)[C@H](O)[C@@H]3O)c2cc1C [FAD]
- flavin fluorescence of supernatant of heat-denatured enzyme, phosphodiesterase t (AORAa): The presence of FAD in AORAa was confirmed by fluorescence spectroscopy

Molecule: AORAa (Aromatoleum aromaticum EbN1)
- Km [1]: 23 µM
- Vmax [1]: 21.2 µmol/min/mg
- kcat [1]: 91 s⁻¹
- kcat/Km [1]: 3.96e+06 M⁻¹ s⁻¹

B1: AorC, medium FAD-containing subunit of aldehyde oxidoreductase AORAa from Aromatoleum aromaticum EbN1 (natural protein, UniProt Q5P142 1-424, looked up)
chain: MKHVILGNGPAGVIAAETLRRAAPTDDILLFGSEDAPPYSRMAIPYLLEGNIDESGTWLRKSPGHFDRLRIHEMRGRAVSLDSERRRILFDDGHFESWDRLLIATGSHPVRPPIPGIDLPEVQTCWTLEDARAIARFATPGARVLQLGAGFIGCIIMEALAARGVELTVVEMGDRMVPRMMTPTAGGMIRKWVEDQGVRVVTNAGVSRIDCRASNDAPLDVTLSTGEVVVADLVIVAAGVAPNIAFLEATPVHVAKGVLVDDRLQTSVPGIFAAGDVAEAPDLFTGAHLVAAIQPNAADQARVAALNMAGHEARLKGVLAINVLDTLGLISSSFGQWWGEERERGGAGVEHVDEAAYRYLSLQFKDDVLIGATSIGLTEHVGALRGLIHGRVRLGEWKERLLHSPLQFVDAYIARSQQPMALVR
notes: AorC, medium-sized subunit (46 kDa on SDS-PAGE) of the tungsten-containing aldehyde oxidoreductase of Aromatoleum aromaticum EbN1; predicted FAD-containing; also called medium subunit; medium-sized subunit; source: purified from A. aromaticum EbN1 strain SR7Δpdh as part of AORAa (DEAE-sepharose, hydroxyapatite, Superdex 200)
- binding result [2]: binds

B2: AORAa (Aromatoleum aromaticum EbN1) (protein)
chain: T2 sequence (looked up)
- Km (purified protein [3]): 141 µM
- Vmax (purified protein [3]): 23.8 µmol/min/mg
- kcat (purified protein [3]): 103 s⁻¹
- kcat/Km (purified protein [3]): 730000 M⁻¹ s⁻¹
- Km (purified protein [4]): 67 µM
- Vmax (purified protein [4]): 21.4 µmol/min/mg
- kcat (purified protein [4]): 92 s⁻¹
- kcat/Km (purified protein [4]): 1.38e+06 M⁻¹ s⁻¹
- Km (purified protein [5]): 82 µM
- Vmax (purified protein [5]): 18.9 µmol/min/mg
- kcat (purified protein [5]): 81 s⁻¹
- kcat/Km (purified protein [5]): 990000 M⁻¹ s⁻¹
- Km (purified protein [6]): 63 µM
- Vmax (purified protein [6]): 12.5 µmol/min/mg
- kcat (purified protein [6]): 54 s⁻¹
- kcat/Km (purified protein [6]): 860000 M⁻¹ s⁻¹

B3: AorA, small subunit of aldehyde oxidoreductase AORAa from Aromatoleum aromaticum EbN1 (natural protein, UniProt Q5P144 1-158, looked up)
chain: MWKSLHIDPAKCTGCLQCEMACSYEHTGVINPSKSRIKVFSFEHEGRKVPYTCTQCTEAWCLHSCPVDAIRLDLTTGAKMVFEDTCVGCKVCTIACPFGTINYNQDTGKVQKCDLCEGDPACAKACPTAAITYIDADWTGLARMQAWAAKANTPASAA
notes: AorA, small subunit (17 kDa on SDS-PAGE) of the tungsten-containing aldehyde oxidoreductase of Aromatoleum aromaticum EbN1; predicted to contain four [Fe4S4] clusters; also called electron transfer subunit; aorA gene product; source: purified from A. aromaticum EbN1 strain SR7Δpdh as part of AORAa (DEAE-sepharose, hydroxyapatite, Superdex 200)
- binding result [2]: binds
